Source: paper PMC10853775 (Nucleic Acids Research, 2023)

Target: the molecule itself
Assay: crystal structure

B1: human nucleoside diphosphate kinase (NDPKb) (enzyme)
chain: ANLERTFIAIKPDGVQRGLVGEIIKRFEQKGFRLVAMKFLRASEEHLKQHYIDLKDRPFFPGLVKYMNSGPVVAMVWEGLNVVKTGRVMLGETNPADSKPGTIRGDFCIQVGRNIIHGSDSVKSAEKEISLWFKPEELVDYKSCAHDWVYE
B1 was tested, and the “stoichiometry N” value was 6.
